# From patent US20240132615A1 (ICHNOS SCIENCES, published 2024)
# B1: Anti-CD3-UCP05-F1 IgG1LALA (antibody, V domains shown)
# VH: EVQLLESGGGLVQPGGSLRLSCAASGFTFRHYAMTWVRQAPGKGLEWVSAITQRGGYTYYADSVKGRFTISRDNSKNTLYLQMNSLRAEDTAVYYCARAGPSGGGFDYWGQGTLVTVSS
# VL: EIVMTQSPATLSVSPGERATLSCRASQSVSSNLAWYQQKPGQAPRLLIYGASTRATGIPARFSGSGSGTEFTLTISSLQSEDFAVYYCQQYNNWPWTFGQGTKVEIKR
# notes: IgG1 LALA
# B2: Anti-CD3-UCP07-D1 IgG1LALA (antibody, V domains shown)
# VH: EVQLLESGGGLVQPGGSLRLSCAASGFNFNINVMSWVRQAPGKGLEWVSAISQSGGYTLYADSVKGRFTISRDNSKNTLYLQMNSLRAEDTAVYYCARASPYGGGFDYWGQGTLVTVSS
# VL: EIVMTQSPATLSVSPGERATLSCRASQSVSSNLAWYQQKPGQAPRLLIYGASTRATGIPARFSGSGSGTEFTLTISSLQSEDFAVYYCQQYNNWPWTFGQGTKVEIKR
# notes: IgG1 LALA
# B3: Anti-CD3-UCP05-A2 IgG1LALA (antibody, V domains shown)
# VH: EVQLLESGGGLVQPGGSLRLSCAASGFSFKIYAMGWVRQAPGKGLEWVSAITQQGGATVYADSVKGRFTISRDNSKNTLYLQMNSLRAEDTAVYYCARPGDLGGGFDIWGQGTLVTVSS
# VL: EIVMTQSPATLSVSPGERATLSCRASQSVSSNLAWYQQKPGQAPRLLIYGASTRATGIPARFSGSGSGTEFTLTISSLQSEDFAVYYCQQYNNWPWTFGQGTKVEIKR
# notes: IgG1 LALA
# B4: Anti-CD3-UCP03-C1 IgG1LALA (antibody, V domains shown)
# VH: EVQLLESGGGLVQPGGSLRLSCAASGFTFSQYAMSWVRQAPGKGLEWVSVISPSGATAVYADSVKGRFTISRDNSKNTLYLQMNSLRAEDTAVYYCARGQYDDLDKSGYEFDHWGQGTLVTVSS
# VL: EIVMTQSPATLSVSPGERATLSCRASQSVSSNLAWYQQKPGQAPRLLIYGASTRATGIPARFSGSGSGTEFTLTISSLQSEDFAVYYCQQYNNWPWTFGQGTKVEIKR
# notes: IgG1 LALA
# B5: Anti-CD3-UCP05-H2 IgG1LALA (antibody, V domains shown)
# VH: QVQLVQSGAEVKKPGSSVKVSCKASGGGFSHYALNWVRQAPGQGLEWMGGIIPLTGKTAYAQKFQGRVTITADESTSTAYMELSSLRSEDTAVYYCARKISSARDYWGQGTLVTVSS
# VL: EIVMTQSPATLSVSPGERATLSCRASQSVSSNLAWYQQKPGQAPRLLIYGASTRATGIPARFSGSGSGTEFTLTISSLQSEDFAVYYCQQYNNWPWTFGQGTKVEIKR
# notes: IgG1 LALA
# B6: Anti-CD3-UCP03-H2 IgG1LALA (antibody, V domains shown)
# VH: EVQLVESGGGLIQPGGSLRLSCAASGFTVRDSYMHWVRQAPGKGLEWVSIIYYTGKTHYADSVKGRFTISRDNSKNTLYLQMNSLRAEDTAVYYCARSQYGYFDYWGQGTLVTVSS
# VL: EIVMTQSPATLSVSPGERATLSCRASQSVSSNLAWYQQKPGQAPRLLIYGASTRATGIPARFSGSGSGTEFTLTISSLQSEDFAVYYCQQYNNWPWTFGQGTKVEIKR
# notes: IgG1 LALA
# B7: Anti-CD3-UCP05-D2 IgG1LALA (antibody, V domains shown)
# VH: EVQLLESGGGLVQPGGSLRLSCAASGFTFNIYALGWVRQAPGKGLEWVSAISQNGGYTLYADSVKGRFTISRDNSKNTLYLQMNSLRAEDTAVYYCARLRGGSGMDVWGQGTLVTVSS
# VL: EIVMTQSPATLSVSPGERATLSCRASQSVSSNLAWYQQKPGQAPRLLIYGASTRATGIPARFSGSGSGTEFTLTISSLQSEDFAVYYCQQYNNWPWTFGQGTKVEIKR
# notes: IgG1 LALA
# B8: Anti-CD3-UCP02-B2 IgG1LALA (antibody, V domains shown)
# VH: EVQLLESGGGLVQPGGSLRLSCAASGFTFSHYVLNWVRQAPGKGLEWVSGISLTGIATIYADSVKGRFTISRDNSKNTLYLQMNSLRAEDTAVYYCARGDPTSAFDVWGQGTLVTVSS
# VL: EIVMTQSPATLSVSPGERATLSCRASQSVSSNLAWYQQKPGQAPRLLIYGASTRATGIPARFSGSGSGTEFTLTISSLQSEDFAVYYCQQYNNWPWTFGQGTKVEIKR
# notes: IgG1 LALA
# B9: Anti-CD3-UCP07-C3 IgG1LALA (antibody, V domains shown)
# VH: QVQLVQSGAEVKKPGSSVKVSCKASGGSFSRYAIGWVRQAPGQGLEWMGGIIPDVGIAFYAQKFQGRVTITADESTSTAYMELSSLRSEDTAVYYCAREYHYVGAFDIWGQGTLVTVSS
# VL: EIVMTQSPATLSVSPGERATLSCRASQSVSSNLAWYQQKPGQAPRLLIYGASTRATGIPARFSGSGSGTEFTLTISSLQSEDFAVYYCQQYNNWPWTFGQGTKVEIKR
# notes: IgG1 LALA
# B10: Anti-CD3-UCP07-E1 IgG1LALA (antibody, V domains shown)
# VH: EVQLLESGGGLVQPGGSLRLSCAASGFTFSRNAMNWVRQAPGKGLEWVSSISRIGGFTIYADSVKGRFTISRDNSKNTLYLQMNSLRAEDTAVYYCARVGSGGKAFDVWGQGTLVTVSS
# VL: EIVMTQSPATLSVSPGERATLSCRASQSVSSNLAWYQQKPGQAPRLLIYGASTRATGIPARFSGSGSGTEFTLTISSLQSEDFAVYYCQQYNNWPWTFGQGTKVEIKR
# notes: IgG1 LALA
# B11: Anti-CD3-UCP03-G2 IgG1LALA (antibody, V domains shown)
# VH: QVQLVQSGAEVKKPGSSVKVSCKASGYGFNLYAINWVRQAPGQGLEWMGRIIPEYGHTRYAQKFQGRVTITADESTSTAYMELSSLRSEDTAVYYCARDRYSTYSGGMDYWGQGTLVTVSS
# VL: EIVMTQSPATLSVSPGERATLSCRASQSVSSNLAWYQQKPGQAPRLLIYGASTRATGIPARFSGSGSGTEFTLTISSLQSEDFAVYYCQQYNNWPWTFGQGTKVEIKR
# notes: IgG1 LALA
# B12: Anti-CD3-UCP03-C5 IgG1LALA (antibody, V domains shown)
# VH: EVQLVESGGGLIQPGGSLRLSCAASGFTVSDNDMSWVRQAPGKGLEWVSLIYSNGGTHYADSVKGRFTISRDNSKNTLYLQMNSLRAEDTAVYYCARWGISLGEPYFDYWGQGTLVTVSS
# VL: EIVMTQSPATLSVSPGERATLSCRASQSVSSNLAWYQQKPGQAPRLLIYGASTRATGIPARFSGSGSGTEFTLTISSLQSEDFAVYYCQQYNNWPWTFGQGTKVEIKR
# notes: IgG1 LALA
# B13: Anti-CD3-UCP03-E2 IgG1LALA (antibody, V domains shown)
# VH: EVQLVESGGGLIQPGGSLRLSCAASGISVGNNYMSWVRQAPGKGLEWVSVIYPNGRIKYADSVKGRFTISRDNSKNTLYLQMNSLRAEDTAVYYCARGVIDGSYLDFAYWGQGTLVTVSS
# VL: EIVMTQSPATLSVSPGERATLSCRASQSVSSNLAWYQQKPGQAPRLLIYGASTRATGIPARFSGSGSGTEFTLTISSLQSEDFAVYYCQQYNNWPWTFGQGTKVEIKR
# notes: IgG1 LALA
# B14: Anti-CD3-UCP05-C1 IgG1LALA (antibody, V domains shown)
# VH: QVQLVQSGAEVKKPGSSVKVSCKASGGRFSRQALTWVRQAPGQGLEWMGGIIPDHGRPIYAQKFQGRVTITADESTSTAYMELSSLRSEDTAVYYCARGKGGSVAGWKFDVWGQGTLVTVSS
# VL: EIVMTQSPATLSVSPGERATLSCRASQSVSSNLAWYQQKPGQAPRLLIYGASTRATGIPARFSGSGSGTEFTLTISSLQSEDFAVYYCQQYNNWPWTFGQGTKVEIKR
# notes: IgG1 LALA
# B15: Anti-CD3-UCP03-B1 IgG1LALA (antibody, V domains shown)
# VH: EVQLLESGGGLVQPGGSLRLSCAASGFTFSRYAMTWVRQAPGKGLEWVSGISKYGGATAYADSVKGRFTISRDNSKNTLYLQMNSLRAEDTAVYYCARGGTRFDIWGQGTLVTVSS
# VL: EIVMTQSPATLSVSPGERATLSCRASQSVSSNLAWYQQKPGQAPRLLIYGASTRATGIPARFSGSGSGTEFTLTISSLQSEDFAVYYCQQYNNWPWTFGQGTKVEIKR
# notes: IgG1 LALA
# B16: Anti-CD3-UCP03-F1 IgG1LALA (antibody, V domains shown)
# VH: EVQLLESGGGLVQPGGSLRLSCAASGFPFSHHVMTWVRQAPGKGLEWVSAITQRGEYTLYADSVKGRFTISRDNSKNTLYLQMNSLRAEDTAVYYCARGPVPGGDHAFDYWGQGTLVTVSS
# VL: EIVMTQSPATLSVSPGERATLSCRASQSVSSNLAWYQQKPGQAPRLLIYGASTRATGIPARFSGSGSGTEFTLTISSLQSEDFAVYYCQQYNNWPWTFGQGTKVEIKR
# notes: IgG1 LALA
# B17: Anti-CD3-UCP06-A1 IgG1LALA (antibody, V domains shown)
# VH: QVQLVQSGAEVKKPGSSVKVSCKASGGHFRGYGISWVRQAPGQGLEWMGEIIPLRGFTIYAQKFQGRVTITADESTSTAYMELSSLRSEDTAVYYCARGSYVDSSYYYYDGFDVWGQGTLVTVSS
# VL: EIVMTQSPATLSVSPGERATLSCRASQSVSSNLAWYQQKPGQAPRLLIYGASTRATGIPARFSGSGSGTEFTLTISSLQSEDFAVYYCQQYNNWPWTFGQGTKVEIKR
# notes: IgG1 LALA
# B18: Anti-CD3-UCP07-A1 IgG1LALA (antibody, V domains shown)
# VH: EVQLVESGGGLVKPGGSLRLSCAASGFTFSDYAVNWVRQAPGKGLEWVGRIKSKNEGGTGYAAPVKGRFTISRDDSKNTLYLQMNSLKTEDTAVYYCAREPSYYRDGAADYWGQGTLVTVSS
# VL: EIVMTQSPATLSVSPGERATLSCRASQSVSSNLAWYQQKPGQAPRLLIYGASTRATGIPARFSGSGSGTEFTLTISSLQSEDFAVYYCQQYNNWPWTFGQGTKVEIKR
# notes: IgG1 LALA
# B19: Anti-CD3-UCP07-E2 IgG1LALA (antibody, V domains shown)
# VH: EVQLLESGGGLVQPGGSLRLSCAASGFPFSNYAMSWVRQAPGKGLEWVSAISRKGGFTEYADSVKGRFTISRDNSKNTLYLQMNSLRAEDTAVYYCARASYLGGFAYWGQGTLVTVSS
# VL: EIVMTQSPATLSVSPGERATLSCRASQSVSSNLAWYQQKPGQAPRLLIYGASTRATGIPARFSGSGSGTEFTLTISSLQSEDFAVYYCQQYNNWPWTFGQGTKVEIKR
# notes: IgG1 LALA
# B20: Anti-CD3-UCP07-A3 IgG1LALA (antibody, V domains shown)
# VH: EVQLLESGGGLVQPGGSLRLSCAASGVSFREYVMAWVRQAPGKGLEWVSVISQYGGNTYYADSVKGRFTISRDNSKNTLYLQMNSLRAEDTAVYYCARSGGSVPFDYWGQGTLVTVSS
# VL: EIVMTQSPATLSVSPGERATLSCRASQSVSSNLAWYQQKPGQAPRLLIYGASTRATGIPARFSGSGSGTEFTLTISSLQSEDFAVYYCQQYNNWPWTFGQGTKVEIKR
# notes: IgG1 LALA
# B21: Anti-CD3-UCP03-A3 IgG1LALA (antibody, V domains shown)
# VH: EVQLLESGGGLVQPGGSLRLSCAASGFTFSSNAMSWVRQAPGKGLEWVSAVGKYGGATSYADSVKGRFTISRDNSKNTLYLQMNSLRAEDTAVYYCARGGPGYSTFYEFDNWGQGTLVTVSS
# VL: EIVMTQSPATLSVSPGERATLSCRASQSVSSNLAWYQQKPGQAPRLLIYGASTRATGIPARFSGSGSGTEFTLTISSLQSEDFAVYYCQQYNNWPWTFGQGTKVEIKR
# notes: IgG1 LALA
# B22: Anti-CD3-UCP05-A1 IgG1LALA (antibody, V domains shown)
# VH: EVQLLESGGGLVQPGGSLRLSCAASGFTFSTYAMSWVRQAPGKGLELVSAISRHGGFSRYADSVKGRFTISRDNSKNTLYLQMNSLRAEDTAVYYCARASSYGYDPWGQGTLVTVSS
# VL: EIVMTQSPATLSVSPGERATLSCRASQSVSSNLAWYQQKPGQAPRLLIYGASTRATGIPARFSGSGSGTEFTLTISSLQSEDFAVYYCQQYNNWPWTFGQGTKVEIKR
# notes: IgG1 LALA
# B23: Anti-CD3-UCP05-H1 IgG1LALA (antibody, V domains shown)
# VH: EVQLLESGGGLVQPGGSLRLSCAASGFAFSNSAMSWVRQAPGKGLELVSAISTKGGKTLYADSVKGRFTISRDNSKNTLYLQMNSLRAEDTAVYYCARSSPYGFDYWGQGTLVTVSS
# VL: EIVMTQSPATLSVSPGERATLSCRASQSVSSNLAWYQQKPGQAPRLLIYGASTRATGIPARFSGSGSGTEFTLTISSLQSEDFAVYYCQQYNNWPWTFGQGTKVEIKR
# notes: IgG1 LALA
# B24: Anti-CD3-UCP07-B3 IgG1LALA (antibody, V domains shown)
# VH: EVQLVESGGGLVKPGGSLRLSCAASGFDFNAAWMTWVRQAPGKGLEWVGRIKSEKNGGKSVYAAPVKGRFTISRDDSKNTLYLQMNSLKTEDTAVYYCARGGRLSSYFDPWGQGTLVTVSS
# VL: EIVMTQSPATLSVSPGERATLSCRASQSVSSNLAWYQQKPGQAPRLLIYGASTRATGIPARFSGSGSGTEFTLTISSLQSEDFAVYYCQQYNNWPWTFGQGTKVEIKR
# notes: IgG1 LALA
# B25: Anti-CD3-UCP02-D2 IgG1LALA (antibody, V domains shown)
# VH: EVQLVESGGGLVKPGGSLRLSCAASGFTFNKAWMGWVRQAPGKGLEWVGRIKSVTDGGITVYAAPVKGRFTISRDDSKNTLYLQMNSLKTEDTAVYYCARVTARYYYFDNWGQGTLVTVSS
# VL: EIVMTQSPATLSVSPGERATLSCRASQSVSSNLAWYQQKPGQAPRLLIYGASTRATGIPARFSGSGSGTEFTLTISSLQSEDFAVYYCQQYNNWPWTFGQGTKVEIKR
# notes: IgG1 LALA
# B26: Anti-CD3-UCP05-G2 IgG1LALA (antibody, V domains shown)
# VH: QVQLVQSGAEVKKPGSSVKVSCKASGGVFNFYAISWVRQAPGQGLEWMGGITPDGGFVKYAQKFQGRVTITADESTSTAYMELSSLRSEDTAVYYCARSPVSLYYGKYYVYYGAFDVWGQGTLVTVSS
# VL: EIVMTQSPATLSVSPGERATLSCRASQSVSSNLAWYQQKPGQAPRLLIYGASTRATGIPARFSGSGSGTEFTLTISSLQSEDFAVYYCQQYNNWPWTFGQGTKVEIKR
# notes: IgG1 LALA
# B27: Anti-CD3-UCP02-A3 IgG1LALA (antibody, V domains shown)
# VH: EVQLVESGGGLIQPGGSLRLSCAASGFTFRRYYMTWVRQAPGKGLEWVSVIFPQGGTSYADSVKGRFTISRDNSKNTLYLQMNSLRAEDTAVYYCARVHDVLDDVEWFDHWGQGTLVTVSS
# VL: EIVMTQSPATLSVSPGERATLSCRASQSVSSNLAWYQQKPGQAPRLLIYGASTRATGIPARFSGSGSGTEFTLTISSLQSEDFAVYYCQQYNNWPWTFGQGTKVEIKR
# notes: IgG1 LALA
# B28: Anti-CD3-UCP07-F2 IgG1LALA (antibody, V domains shown)
# VH: QVQLVQSGAEVKKPGSSVKVSCKASGGKFNKYVIGWVRQAPGQGLEWMGGVIPLKGQSKYAQKFQGRVTITADESTSTAYMELSSLRSEDTAVYYCARGRYYGDYSWKFDYWGQGTLVTVSS
# VL: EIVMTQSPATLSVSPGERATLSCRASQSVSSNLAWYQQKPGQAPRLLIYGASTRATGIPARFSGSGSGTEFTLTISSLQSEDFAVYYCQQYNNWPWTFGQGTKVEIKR
# notes: IgG1 LALA
# B29: Anti-CD3-UCP03-F2 IgG1LALA (antibody, V domains shown)
# VH: EVQLLESGGGLVQPGGSLRLSCAASGFAFSHYAMTWVRQAPGKGLELVSAISQHGGYTAYADSVKGRFTISRDNSKNTLYLQMNSLRAEDTAVYYCARGHPVHAFDFWGQGTLVTVSS
# VL: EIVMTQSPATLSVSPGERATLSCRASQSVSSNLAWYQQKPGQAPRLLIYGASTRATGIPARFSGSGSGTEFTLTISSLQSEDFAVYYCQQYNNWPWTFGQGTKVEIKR
# notes: IgG1 LALA
# B30: Anti-CD38-UCP02-A7 Fab (Fab, V domains shown)
# VH: EVQLLESGGGLVQPGGSLRLSCAASGFTFSFYDMSWVRQAPGKGLEWVSTITLHGGDTYYADSVKGRFTISRDNSKNTLYLQMNSLRAEDTAVYYCARDPSYIYSTSGYFDYWGQGTLVTVSS
# VL: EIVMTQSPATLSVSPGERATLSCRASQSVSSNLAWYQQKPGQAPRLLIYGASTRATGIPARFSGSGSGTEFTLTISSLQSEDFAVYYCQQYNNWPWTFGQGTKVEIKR
# notes: Fab
# B31: Anti-CD38-UCP02-B1 Fab (Fab, V domains shown)
# VH: QVQLVQSGAEVKKPGSSVKVSCKASGGQFSFYAINWVRQAPGQGLEWMGEIIPDYGVTHYAQKFQGRVTITADESTSTAYMELSSLRSEDTAVYYCARWSYTYGIRYYYKLFDPWGQGTLVTVSS
# VL: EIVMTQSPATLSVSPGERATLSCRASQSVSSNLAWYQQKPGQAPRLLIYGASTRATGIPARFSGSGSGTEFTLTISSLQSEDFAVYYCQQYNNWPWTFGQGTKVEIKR
# notes: Fab
# Target: T1, human CD3 on cells (HPB-ALL cells, primary human T cells) (human, UniProt P07766 23-207)
# T1 construct: whole, on cells; only the epsilon chain is written
# Assay: flow cytometry, HPB-ALL WT;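 note: binding read by flow cytometry as PE geometric mean fluorescence intensity on live single cells, dead cells excluded with SYTOX Green, only samples with at least 200 gated cells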
# Description: Cells were then washed twice and resuspended in 100 μl of FACS buffer containing SYTOX Green dead cell stain (ThermoFisher Scientific, catalog NO: S34860) diluted 1/2000. Samples were acquired on a CytoFlex instruments (Beckman Coulter). Cells were gated based on size on FSC vs SSC and debris, doublets and dead cells were excluded. Cells were analyzed for PE-geometric mean (geomean) fluorescence intensity using FlowJo software. Only samples showing at least 200 cells in final gate were considered in the further steps of the analysis.
# T1 sequence (P07766 23-207): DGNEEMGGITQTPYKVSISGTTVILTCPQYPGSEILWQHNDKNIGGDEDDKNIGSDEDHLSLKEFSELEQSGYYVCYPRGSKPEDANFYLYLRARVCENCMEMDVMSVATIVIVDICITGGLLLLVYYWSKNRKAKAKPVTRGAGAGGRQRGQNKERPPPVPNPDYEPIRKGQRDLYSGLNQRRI
row,binding result,Binder
1,no binding (tested: 800 nM),B1
2,no binding (tested: 800 nM),B2
3,no binding (tested: 800 nM),B3
4,no binding (tested: 800 nM),B4
5,no binding (tested: 800 nM),B5
6,no binding (tested: 800 nM),B6
7,no binding (tested: 800 nM),B7
8,no binding (tested: 800 nM),B8
9,no binding (tested: 800 nM),B9
10,no binding (tested: 800 nM),B10
11,no binding (tested: 800 nM),B11
12,no binding (tested: 800 nM),B12
13,no binding (tested: 800 nM),B13
14,no binding (tested: 800 nM),B14
15,no binding (tested: 800 nM),B15
16,no binding (tested: 800 nM),B16
17,no binding (tested: 800 nM),B17
18,no binding (tested: 800 nM),B18
19,no binding (tested: 800 nM),B19
20,no binding (tested: 800 nM),B20
21,no binding (tested: 800 nM),B21
22,no binding (tested: 800 nM),B22
23,no binding (tested: 800 nM),B23
24,no binding (tested: 800 nM),B24
25,no binding (tested: 800 nM),B25
26,no binding (tested: 800 nM),B26
27,no binding (tested: 800 nM),B27
28,no binding (tested: 800 nM),B28
29,no binding (tested: 800 nM),B29

# Target: T2, Biotinylated Human CD38 Protein, Avitag, His Tag (Acrobiosystems CD8-H82E7) (human, UniProt P28907 43-300, biotinylated)
# T2 construct: bought protein; also called biotinylated recombinant human CD38 protein; human CD38-avi-his
# Assay: SPR, Fab as analyte, immobilised biotinylated human CD38;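 note: biacore T200 at 25 °C, single-cycle kinetics with Fab from 7.8 to 2000 nM, 3 min association then 5 min dissociation, fitted with a 1:1 Langmuir model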
# Description: Surface plasmon resonance (SPR) was used to measure the binding affinities of the Fab fragments for human and cynomolgus monkey CD38. Affinities were measured on a Biacore T200 instrument (Cytiva Life Sciences) at 25° C. and analyzed with the Biacore T200 Evaluation Software (v3.1).
# The affinities to human and cynomolgus monkey CD38 were assessed by immobilizing CD38 and using Fab fragments as analyte. […] Fab fragments were injected in single cycle kinetic at different concentrations ranging from 7.8 to 2000 nM, in HBS-EP+ buffer (Cytiva Life Sciences, catalog NO: BR100669) at a flow rate of 30 μl/min for 3 min on flow-path 1 and 2 (flow-path 1 being used as reference). Dissociation was monitored for 5 min. […] Experimental data were processed using the 1:1 Langmuir kinetic fitting model.
row,Kd [nM],Binder
1,71.1,B30
2,595,B31
